From IntAct's records for PubMed 31142615

B1: E3 ubiquitin-protein ligase MARCHF2 (Homo sapiens), Q9P0N8 (parent)
chain: MTTGDCCHLPGSLCDCSGSPAFSKVVEATGLGPPQYVAQVTSRDGRLLSTVIRALDTPSDGPFCRICHEGANGECLLSPCGCTGTLGAVHKSCLEKWLSSSNTSYCELCHTEFAVEKRPRPLTEWLKDPGPRTEKRTLCCDMVCFLFITPLAAISGWLCLRGAQDHLRLHSQLEAVGLIALTIALFTIYVLWTLVSFRYHCQLYSEWRKTNQKVRLKIREADSPEGPQHSPLAAGLLKKVAEETPV

Variants of: B1
Details: with ergi3_human ERGIC3, Q9Y282
Sequence of ergi3_human ERGIC3, Q9Y282 (Q9Y282 whole entry): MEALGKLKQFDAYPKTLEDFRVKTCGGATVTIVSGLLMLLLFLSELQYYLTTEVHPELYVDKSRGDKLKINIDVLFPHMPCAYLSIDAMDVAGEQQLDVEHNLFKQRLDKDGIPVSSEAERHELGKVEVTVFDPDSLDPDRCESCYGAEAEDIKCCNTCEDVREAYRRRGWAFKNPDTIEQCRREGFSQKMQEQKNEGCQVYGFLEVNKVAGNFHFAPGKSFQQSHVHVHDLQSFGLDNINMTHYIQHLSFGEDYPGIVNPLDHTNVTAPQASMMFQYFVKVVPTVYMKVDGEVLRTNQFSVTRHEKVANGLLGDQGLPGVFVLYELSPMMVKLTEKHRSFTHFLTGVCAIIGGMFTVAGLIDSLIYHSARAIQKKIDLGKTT

Variant	effect of a mutation on the interaction
C64S;C67S	decreasing interaction strength

Variants of: B1
Details: with ergi3_human ERGIC3, Q9Y282
Remark: another data set of the same source

Variant	effect of a mutation on the interaction
C64S;C67S	with no effect

Variants of: B1
Details: with ergi3_human ERGIC3, Q9Y282
Remark: another data set of the same source

Variant	effect of a mutation on the interaction
C64S;C67S	causing an interaction
